The values below come from patent US20210403580A1 (AJOU UNIVERSITY INDUSTRY ACADEMIC COOPERATION FOUNDATION, published 2021).

The target in the assay is T1, hIL-4Rα (Sino Biological) (human, UniProt P24394 26-232).
T1 construct: Bought protein immobilised on the CM5 chip for SPR
Kind of assay: SPR (Biacore 2000), hIL-4Rα (Sino Biological) immobilised to about 500 RU on CM5, IgG as analyte. As to the method:
Specifically, hIL-4Rα (Sino Biological) was diluted to a concentration of […] in a 10 mM NaAc buffer (pH 4.0) and immobilized to about 500 response units (RU) on a CM5 sensor chip (GE Healthcare). […] After binding and dissociation analysis, regeneration of the CM5 chip was carried out by flushing the CM5 chip with a buffer solution (10 mM Glycine, pH 2.0) at a flow rate of 30 μl/min for 90 seconds. The sensorgram, obtained by binding for 90 seconds and dissociation for 900 seconds, was normalized and the value of a blank cell was subtracted therefrom to calculate the affinity.
In this manner, affinity may vary depending on the level of antigen immobilization.
Background: In SPR one partner is held on a chip, and binding of the other changes the refractive index at the surface.

B1: 4R25 (antibody, V domains shown)
VH: EVQLLESGGGLVQPGGSLRLSCAASGFTFSNYAMSWVRQAPGKGLEWVSWISPNSGNIYYADSVKGRFTISRDNSKNTLYLQMNSLRAEDTAVYYCARRPLSAAWSHSSYYNAMDVWGQGTLVTVSS
VL: QSVLTQPPSAPGTPGQRVTISCTGSSSNIGSNSVNWYQQLPGTAPKLLIYDDSHRPSGVPDRFSGSKSGTSASLAISGLRSEDEADYYCDAWDSSLSAYVFGGGTKLTVL
One may read the Kd as the constant that tells how readily two partners part at equilibrium. Read a low Kd as a tighter complex. By koff is commonly meant the first-order rate constant of dissociation. Higher therefore signals a short-lived complex. One may read the kon as the rate constant with which the complex forms. The low end stands for slower complex formation, the high end for faster complex formation. B1 showed a Kd of 1.21 nM, an off-rate constant (koff) of 0.000177 s⁻¹ and a kon of 147000 M⁻¹ s⁻¹.
